The labels stand for the following.
B1: GpH7-A5/GpH7-B3 variant P331_13S/GpL16-k0 (antibody, human IgG1, kappa)
heavy 1: not shown
heavy 2: not shown
light: DIVMTQSPLSLPVTPGEPASISCQASESLVHSNRNTYLHWYLQKPGQSPQLLIYKVSNRFSGVPDRFSGSGSGTDFTLKISRVEAEDVGVYYCSQNTHVPPTFGQGTKVEIERTVAAPSVFIFPPSDEQLKSGTASVVCLLNNFYPREAKVQWKVDNALQSGNSQESVTEQDSKDSTYSLSSTLTLSKADYEKHKVYACEVTHQGLSSPVTKSFNRGEC
notes: copies: 1 + 1 + 2
B2: GpH7-A5/GpH7-B3 variant Q295_02A/GpL16-k0 (antibody, human IgG1, kappa)
heavy 1: not shown
heavy 2: not shown
light: DIVMTQSPLSLPVTPGEPASISCQASESLVHSNRNTYLHWYLQKPGQSPQLLIYKVSNRFSGVPDRFSGSGSGTDFTLKISRVEAEDVGVYYCSQNTHVPPTFGQGTKVEIERTVAAPSVFIFPPSDEQLKSGTASVVCLLNNFYPREAKVQWKVDNALQSGNSQESVTEQDSKDSTYSLSSTLTLSKADYEKHKVYACEVTHQGLSSPVTKSFNRGEC
notes: copies: 1 + 1 + 2
B3: GpH7-A5/GpH7-B3 variant P331_12R/GpL16-k0 (antibody, human IgG1, kappa)
heavy 1: not shown
heavy 2: not shown
light: DIVMTQSPLSLPVTPGEPASISCQASESLVHSNRNTYLHWYLQKPGQSPQLLIYKVSNRFSGVPDRFSGSGSGTDFTLKISRVEAEDVGVYYCSQNTHVPPTFGQGTKVEIERTVAAPSVFIFPPSDEQLKSGTASVVCLLNNFYPREAKVQWKVDNALQSGNSQESVTEQDSKDSTYSLSSTLTLSKADYEKHKVYACEVTHQGLSSPVTKSFNRGEC
notes: copies: 1 + 1 + 2
B4: GpH7-A5/GpH7-B3 variant P331_04F/GpL16-k0 (antibody, human IgG1, kappa)
heavy 1: not shown
heavy 2: not shown
light: DIVMTQSPLSLPVTPGEPASISCQASESLVHSNRNTYLHWYLQKPGQSPQLLIYKVSNRFSGVPDRFSGSGSGTDFTLKISRVEAEDVGVYYCSQNTHVPPTFGQGTKVEIERTVAAPSVFIFPPSDEQLKSGTASVVCLLNNFYPREAKVQWKVDNALQSGNSQESVTEQDSKDSTYSLSSTLTLSKADYEKHKVYACEVTHQGLSSPVTKSFNRGEC
notes: copies: 1 + 1 + 2
B5: GpH7-A5/GpH7-B3 variant P331_19Q/GpL16-k0 (antibody, human IgG1, kappa)
heavy 1: not shown
heavy 2: not shown
light: DIVMTQSPLSLPVTPGEPASISCQASESLVHSNRNTYLHWYLQKPGQSPQLLIYKVSNRFSGVPDRFSGSGSGTDFTLKISRVEAEDVGVYYCSQNTHVPPTFGQGTKVEIERTVAAPSVFIFPPSDEQLKSGTASVVCLLNNFYPREAKVQWKVDNALQSGNSQESVTEQDSKDSTYSLSSTLTLSKADYEKHKVYACEVTHQGLSSPVTKSFNRGEC
notes: copies: 1 + 1 + 2
B6: GpH7-A5/GpH7-B3 variant P331_10E/GpL16-k0 (antibody, human IgG1, kappa)
heavy 1: not shown
heavy 2: not shown
light: DIVMTQSPLSLPVTPGEPASISCQASESLVHSNRNTYLHWYLQKPGQSPQLLIYKVSNRFSGVPDRFSGSGSGTDFTLKISRVEAEDVGVYYCSQNTHVPPTFGQGTKVEIERTVAAPSVFIFPPSDEQLKSGTASVVCLLNNFYPREAKVQWKVDNALQSGNSQESVTEQDSKDSTYSLSSTLTLSKADYEKHKVYACEVTHQGLSSPVTKSFNRGEC
notes: copies: 1 + 1 + 2
B7: GpH7-A5/GpH7-B3 variant P331_14T/GpL16-k0 (antibody, human IgG1, kappa)
heavy 1: not shown
heavy 2: not shown
light: DIVMTQSPLSLPVTPGEPASISCQASESLVHSNRNTYLHWYLQKPGQSPQLLIYKVSNRFSGVPDRFSGSGSGTDFTLKISRVEAEDVGVYYCSQNTHVPPTFGQGTKVEIERTVAAPSVFIFPPSDEQLKSGTASVVCLLNNFYPREAKVQWKVDNALQSGNSQESVTEQDSKDSTYSLSSTLTLSKADYEKHKVYACEVTHQGLSSPVTKSFNRGEC
notes: copies: 1 + 1 + 2
B8: GpH7-A5/GpH7-B3 variant P331_09D/GpL16-k0 (antibody, human IgG1, kappa)
heavy 1: not shown
heavy 2: not shown
light: DIVMTQSPLSLPVTPGEPASISCQASESLVHSNRNTYLHWYLQKPGQSPQLLIYKVSNRFSGVPDRFSGSGSGTDFTLKISRVEAEDVGVYYCSQNTHVPPTFGQGTKVEIERTVAAPSVFIFPPSDEQLKSGTASVVCLLNNFYPREAKVQWKVDNALQSGNSQESVTEQDSKDSTYSLSSTLTLSKADYEKHKVYACEVTHQGLSSPVTKSFNRGEC
notes: copies: 1 + 1 + 2
B9: GpH7-A5/GpH7-B3 variant Q295_04F/GpL16-k0 (antibody, human IgG1, kappa)
heavy 1: not shown
heavy 2: not shown
light: DIVMTQSPLSLPVTPGEPASISCQASESLVHSNRNTYLHWYLQKPGQSPQLLIYKVSNRFSGVPDRFSGSGSGTDFTLKISRVEAEDVGVYYCSQNTHVPPTFGQGTKVEIERTVAAPSVFIFPPSDEQLKSGTASVVCLLNNFYPREAKVQWKVDNALQSGNSQESVTEQDSKDSTYSLSSTLTLSKADYEKHKVYACEVTHQGLSSPVTKSFNRGEC
notes: copies: 1 + 1 + 2
B10: GpH7-A5/GpH7-B3 variant P331_07I/GpL16-k0 (antibody, human IgG1, kappa)
heavy 1: not shown
heavy 2: not shown
light: DIVMTQSPLSLPVTPGEPASISCQASESLVHSNRNTYLHWYLQKPGQSPQLLIYKVSNRFSGVPDRFSGSGSGTDFTLKISRVEAEDVGVYYCSQNTHVPPTFGQGTKVEIERTVAAPSVFIFPPSDEQLKSGTASVVCLLNNFYPREAKVQWKVDNALQSGNSQESVTEQDSKDSTYSLSSTLTLSKADYEKHKVYACEVTHQGLSSPVTKSFNRGEC
notes: copies: 1 + 1 + 2
B11: GpH7-A5/GpH7-B3 variant P331_11K/GpL16-k0 (antibody, human IgG1, kappa)
heavy 1: not shown
heavy 2: not shown
light: DIVMTQSPLSLPVTPGEPASISCQASESLVHSNRNTYLHWYLQKPGQSPQLLIYKVSNRFSGVPDRFSGSGSGTDFTLKISRVEAEDVGVYYCSQNTHVPPTFGQGTKVEIERTVAAPSVFIFPPSDEQLKSGTASVVCLLNNFYPREAKVQWKVDNALQSGNSQESVTEQDSKDSTYSLSSTLTLSKADYEKHKVYACEVTHQGLSSPVTKSFNRGEC
notes: copies: 1 + 1 + 2
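Note: antibody variants captured on an SPR sensor chip, with FcγRIIIa passed over as analyte in HBS-EP+ buffer at 25 °C.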

T1 sequence (P08637 other isoform, or with tags, fused parts or gaps): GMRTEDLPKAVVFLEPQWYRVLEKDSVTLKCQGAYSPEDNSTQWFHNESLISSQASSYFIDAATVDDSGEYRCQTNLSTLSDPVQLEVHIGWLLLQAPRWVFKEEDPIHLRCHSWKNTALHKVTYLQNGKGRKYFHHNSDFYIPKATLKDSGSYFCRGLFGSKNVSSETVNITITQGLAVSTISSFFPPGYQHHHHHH

The assay concerns the target T1, FcγRIIIa (human, UniProt P08637 17-208).
T1 construct: extracellular domain; also called 3a; FcγRIIIa extracellular domain
Description: SPR (Biacore). (SPR reads the build-up and loss of mass on a sensor chip optically.)
Consider B1, for which the “He/Con 3a” value was 80.9 % of GpH7-A5/GpH7-B3/GpL16-k0.
On to B2, for which the “He/Con 3a” value is 111 % of GpH7-A5/GpH7-B3/GpL16-k0.
As for B3, the “He/Con 3a” value is 64.8 % of GpH7-A5/GpH7-B3/GpL16-k0.
On to B4, for which the “He/Con 3a” value was 70.7 % of GpH7-A5/GpH7-B3/GpL16-k0.
With B5 the figure was 73.9 % of GpH7-A5/GpH7-B3/GpL16-k0.
As for B6, the “He/Con 3a” value was 68.7 % of GpH7-A5/GpH7-B3/GpL16-k0.
Take B7: the “He/Con 3a” value is 67.8 % of GpH7-A5/GpH7-B3/GpL16-k0.
With B8, the “He/Con 3a” value was 71.6 % of GpH7-A5/GpH7-B3/GpL16-k0.
As to B9, the “He/Con 3a” value was 75.1 % of GpH7-A5/GpH7-B3/GpL16-k0.
Regarding B10, the “He/Con 3a” value is 60.4 % of GpH7-A5/GpH7-B3/GpL16-k0.
As for B11, the “He/Con 3a” value was 61.8 % of GpH7-A5/GpH7-B3/GpL16-k0.

For the origin of these results see patent US20260167699A1 (Chugai, published 2026).
